Literature values as cited in patent publication US20010039026A1, “Assay method” (priority 2000, published 2001).

What was measured:
CCCKR5 = target: T1, CCCKR5 (Homo sapiens, UniProt P51681); conditions: transfected CHO-K1 cells
T1 construct: expressed in transfected cells; host or cells: CHO-K1 (stably transfected)

[1] = test system: primary, nonsyncytium-inducing (NSI) HIV-1 strains; conditions: primary NSI HIV-1 strains
[2] = test system: env-mediated cell-cell fusion

T1 sequence (P51681 whole entry): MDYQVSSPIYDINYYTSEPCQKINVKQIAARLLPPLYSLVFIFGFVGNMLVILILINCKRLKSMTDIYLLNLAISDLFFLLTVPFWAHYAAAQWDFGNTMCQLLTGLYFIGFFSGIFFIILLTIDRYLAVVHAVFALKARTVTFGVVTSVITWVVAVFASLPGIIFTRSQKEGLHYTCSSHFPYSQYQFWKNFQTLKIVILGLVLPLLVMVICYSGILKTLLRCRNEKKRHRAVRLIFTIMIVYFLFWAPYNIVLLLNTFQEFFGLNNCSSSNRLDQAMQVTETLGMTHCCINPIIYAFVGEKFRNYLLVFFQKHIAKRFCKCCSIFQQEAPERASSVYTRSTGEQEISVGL

B1: MIP-1-β: macrophage inflammatory protein, β-chemokine ligand of CCR5 (protein, UniProt P13236 24-92, looked up)
C-C motif chemokine 4: APMGSDPPTACCFSYTARKLPRNFVVDYYETSSLCSQPAVVFQTKRSKQVCADPSESWVQEYVYDLELN
CCCKR5
  agonist activity at CCCKR5: active at physiologic concentrations
[1]
  inhibition of infection of CD4(+) cells at the virus entry stage: inhibit infection
[2]
  block of env-mediated cell-cell fusion: block env-mediated cell-cell fusion
